This note sets out measurements from patent publication US20260234234A1 (QILU PUGET SOUND BIOTHERAPEUTICS, published 2026).

Where a chain is given by its changes, count along the chain named. Names and notes keep the numbering of the source. Where only a bound is given, the exact number is not on record here.

The target of test [1] is Avitag_c-MYC_His6_hTSLP (wild type) QB11630 (human). Put plainly: cell-based or functional assay.
Test [2] has as its target T1, Avitag_c-MYC_His6_hTSLP QB11631 with mutations of R127A + R130S (human). The test is described as follows: cell-based or functional assay.
In test [3] the target is Avitag_c-MYC_His6_hTSLP (wild type) QB11630 (human). Put plainly: cell-based or functional assay. This is another data set of the same source.
Test [4] addresses T1, Avitag_c-MYC_His6_hTSLP QB11631 with …. The test is described as follows: cell-based or functional assay. This is another data set of the same source.
Test [5] concerns the target T2, Avitag_FLAG_His6_cyTSLP QB11632 (wild type) (cynomolgus monkey).
T2 chain: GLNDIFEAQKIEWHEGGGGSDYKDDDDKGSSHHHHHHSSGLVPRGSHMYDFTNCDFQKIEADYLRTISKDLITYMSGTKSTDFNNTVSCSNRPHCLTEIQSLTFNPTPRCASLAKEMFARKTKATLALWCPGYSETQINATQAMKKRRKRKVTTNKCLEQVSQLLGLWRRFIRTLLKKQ
The test is described as follows: cell-based or functional assay.

Test [6] concerns the target T3, Avitag_FLAG_His6_cyTSLP QB11633 with mutations of R127A + R130S (cynomolgus monkey).
T3 chain: T2 chain with R147A, R150S
Put plainly: cell-based or functional assay.

The target in test [7] is T4, native hTSLP derived from human Small Airway Epithelial Cells (healthy donor 1 and donor 2) (human, UniProt Q969D9 29-159, limits assumed). The test is described as follows: cell-based or functional assay.
Test [8] concerns the target T4, native hTSLP derived from human Small …. The test is described as follows: cell-based or functional assay. The source holds these as a separate data set.
The target in test [9] is Avitag_c-MYC_His6_hTSLP (wild type) QB11630 (human). Put plainly: cell-based or functional assay. The source holds these as a separate data set.
In test [10] the target is T1, Avitag_c-MYC_His6_hTSLP QB11631 with …. Put plainly: cell-based or functional assay. The source holds these as a separate data set.
In test [11] the target is T2, Avitag_FLAG_His6_cyTSLP QB11632 (wild …). The test is described as follows: cell-based or functional assay.
Test [12] deals with Avitag_c-MYC_His6_hTSLP (wild type) QB11630 (human). The test is described as follows: cell-based or functional assay. This is another data set of the same source.
Test [13] concerns the target T1, Avitag_c-MYC_His6_hTSLP QB11631 with …. The test is described as follows: cell-based or functional assay. This is another data set of the same source.
The target of test [14] is T2, Avitag_FLAG_His6_cyTSLP QB11632 (wild …). Put plainly: cell-based or functional assay.
Test [15] concerns the target Avitag_c-MYC_His6_hTSLP (wild type) QB11630 (human). The test is described as follows: cell-based or functional assay. This is another data set of the same source.
In test [16] the target is T1, Avitag_c-MYC_His6_hTSLP QB11631 with …. The test is described as follows: cell-based or functional assay. This is another data set of the same source.
Test [17] addresses T2, Avitag_FLAG_His6_cyTSLP QB11632 (wild …). Put plainly: cell-based or functional assay.
The target in test [18] is T5, Avitag_c-MYC_His6_hTSLP (wild type) QB11630 (human).
T5 construct: N-terminal tags are part of the entry; also called in-house hTSLP native antigen QB11630
Put plainly: SPR, captured antibody, monomeric TSLP analyte, 25 C, 1:1 Langmuir fit.

Test [19] addresses T1, Avitag_c-MYC_His6_hTSLP QB11631 with …. The test is described as above.
Test [20] concerns the target hTSLP, R&D Systems 1398-TS-010 (E. coli) (human, UniProt Q969D9 29-159, limits assumed). The test is described as above.
The target of test [21] is T6, hTSLP, ACRO Biosystems TSP-H52Hb (HEK293) (human, UniProt Q969D9 29-159, limits assumed).
T6 construct: also called Acro-WT
Described as above.

Test [22] deals with T2, Avitag_FLAG_His6_cyTSLP QB11632 (wild …). Described as above.
In test [23] the target is T3, Avitag_FLAG_His6_cyTSLP QB11633 with …. The description is as above.
The target of test [24] is T7, cyTSLP, ACRO Biosystems TSP-C52H8 (HEK293) (cynomolgus monkey, UniProt A0A7N9CAT7 29-159).
T7 construct: also called Acro WT
The test is described as above.

For test [25], the target named is T8, cyTSLP (R127A, R130S), ACRO Biosystems TSP-C52H4 (HEK293) (cynomolgus monkey, UniProt A0A7N9CAT7 29-159).
T8 construct: also called Acro-RA-RS
Described as above.

The target of test [26] is T9, cyTSLP (R127A, R130S), Sino Biological 90911-C08H-100 (HEK293) (cynomolgus monkey, UniProt A0A7N9CAT7 29-159).
T9 construct: also called Sino-RA-RS
The description is as above.

Test [27] deals with T10, cyTSLP antigen, version not stated (cynomolgus monkey, UniProt A0A7N9CAT7 29-159).
T10 construct: Used where the text only says cyTSLP
The test is described as follows: SPR (Biacore).

Test [28] deals with T1, Avitag_c-MYC_His6_hTSLP QB11631 with …. The test is described as follows: SPR (Biacore).
Test [29] shares this target. The test is described as follows: SPR (Biacore), hTSLP (R127A+R130S) antigen.
Test [30] has as its target T5, Avitag_c-MYC_His6_hTSLP (wild type) …. The test is described as follows: SPR, in-house hTSLP QB11630 analyte.

B1: anti-hTSLP IgG1-D265A antibody QB11718 (antibody, V domains shown)
VH: QVQLVQSGPEVKKPGSSVKVSCKASGYIFTDYAMHWVRQRPGQDLEWMGTFIPLLDTSDYNQNFKGRATITADKSTSTAYMELSSLRSEDTAVYYCARMGVTHSYVMDAWGQGTLVTVSS
VL: EIVLTQSPGTLSLSPGERATLSCRASQHISRSVHWYQQKPGEAPRLLIYFASQSISGIPDRFSGSGSGTDFTLTISRLESEDFAVYYCQQSYSFPYTFGRGTKVEIKR
notes: QB11237 altered for MabPair production; alterations are in the entries; also called lead anti-hTSLP antibody QB11718
For the molecule B1, the results for the “IC50, inhibition of hTSLP-induced IL-5 secretion from human ILC2s” value in test [1] and in [2] were 0.1 nM and 0.35 nM, respectively. Also, the “IC50, inhibition of TSLP-induced proliferation of BaF3 cells expressing hTSLPR/hIL-7Rα (CellTiter-Glo, RLU); stimulus hTSLP QB11630” value in [3] turned out to be 0.0058 nM. For the same molecule, the “IC50, inhibition of TSLP-induced proliferation of BaF3 cells expressing hTSLPR/hIL-7Rα (CellTiter-Glo, RLU); stimulus hTSLP QB11631” value in [4] amounted to 0.012 nM. The “IC50, inhibition of TSLP-induced proliferation of BaF3 cells expressing hTSLPR/hIL-7Rα (CellTiter-Glo, RLU); stimulus cyTSLP QB11632” value in test [5] is 0.012 nM. Besides, the “IC50, inhibition of TSLP-induced proliferation of BaF3 cells expressing hTSLPR/hIL-7Rα (CellTiter-Glo, RLU); stimulus cyTSLP QB11633” value in test [6] came to 0.0022 nM. Besides, the “IC50, inhibition of TSLP-induced proliferation of BaF3 cells expressing hTSLPR/hIL-7Rα (CellTiter-Glo, RLU); stimulus native hTSLP from healthy donor 1” value in [7] worked out at 1.4 pM. Moreover, in test [8], the “IC50, inhibition of TSLP-induced proliferation of BaF3 cells expressing hTSLPR/hIL-7Rα (CellTiter-Glo, RLU); stimulus native hTSLP from healthy donor 2” value was 1.8 pM. In test [9], the “IC50, inhibition of TSLP-induced pSTAT5 (AlphaLISA, MFI) in BaF3 cells expressing hTSLPR/hIL-7Rα; stimulus hTSLP QB11630” value came out at 1.7 nM. In addition, the “IC50, inhibition of TSLP-induced pSTAT5 (AlphaLISA, MFI) in BaF3 cells expressing hTSLPR/hIL-7Rα; stimulus hTSLP QB11631” value in [10] was found to be 0.78 nM. For the same molecule, the “IC50, inhibition of TSLP-induced pSTAT5 (AlphaLISA, MFI) in BaF3 cells expressing hTSLPR/hIL-7Rα; stimulus cyTSLP QB11632” value in test [11] came to 0.28 nM. Further, the “IC50, inhibition of TSLP-induced CCL17 release from primary human monocytes (ELISA, pg/mL); stimulus hTSLP QB11630” value in test [12] came out at 4.5 pM. The “IC50, inhibition of TSLP-induced CCL17 release from primary human monocytes (ELISA, pg/mL); stimulus hTSLP QB11631” value in test [13] was 1.3 pM. For the same molecule, in test [14], the “IC50, inhibition of TSLP-induced CCL17 release from primary human monocytes (ELISA, pg/mL); stimulus cyTSLP QB11632” value is 2.7 pM. Besides, the “IC50, inhibition of TSLP-induced pSTAT5 (AlphaLISA, MFI) in cultured primary human ILC2 cells; stimulus hTSLP QB11630” value in test [15] was 1.5 nM. In addition, the “IC50, inhibition of TSLP-induced pSTAT5 (AlphaLISA, MFI) in cultured primary human ILC2 cells; stimulus hTSLP QB11631” value in test [16] turned out to be 3.1 nM. Also, the “IC50, inhibition of TSLP-induced pSTAT5 (AlphaLISA, MFI) in cultured primary human ILC2 cells; stimulus cyTSLP QB11632” value in [17] was determined as 0.46 nM. The Kd in test [18] was 0.0778 nM; in [19], 0.0163 nM; in test [20] it was 5.02 pM; in test [21], 0.0118 nM; in [22] it was 0.831 nM; in test [23] it was 0.075 nM. Further, the equilibrium dissociation constant (Kd) was 0.0295 nM in [24], 0.0263 nM in test [25] and 0.0187 nM in [26].

B2: anti-hTSLP QB11060, humanized antibody clone hz-3C-V6 (antibody, human IgG4 S228P, kappa, V domains shown)
VH: B1 VH with D44G
VL: B1 VL with H28P, R31I, S91T, Y92F, F94L, R100T
notes: hz-3C with D9P + S108L in the VH
With B2, in test [27], the “fold binding difference between hTSLP and cyTSLP” value was less than 10 fold. In addition, in test [28], the “fold lower binding affinity against comparator QB10985” value was 8.8 fold. In test [29], the Kd amounted to 1.62 nM, the koff came to 0.000852 s⁻¹ and the kon was found to be 527000 M⁻¹ s⁻¹.

B3: anti-hTSLP IgG1-D265A antibody QB11764 (antibody, V domains shown)
VH: EVQLVESGGGLVQPGGSLRLSCAASGFDFSSYWISWVRQAPGKRPEWIASIDIDIDIADYASWAKGRFTISRDNSKNTLYLQMNSLRAEDTAVYYCVRNLGLWGPGTLVTVSS
VL: DIQMTQSPSSLSASVGDRVTITCQSSQNVYDKDALAWYQHKPGKRPKLLIYEASRLASGVPSRFSGSGSGTHFTLTISSLQPEDAATYYCAGTRIDNIYTFGDGTKVEIKR
notes: QB11548 altered for MabPair production; alterations are in the entries; also called lead anti-hTSLP antibody QB11764
Regarding B3, in test [30], the “fold lower binding affinity against QB10985” value is roughly 3 fold. Moreover, in test [3], the “IC50, inhibition of TSLP-induced proliferation of BaF3 cells expressing hTSLPR/hIL-7Rα (CellTiter-Glo, RLU); stimulus hTSLP QB11630” value stood at 0.1 nM. Besides, the “IC50, inhibition of TSLP-induced proliferation of BaF3 cells expressing hTSLPR/hIL-7Rα (CellTiter-Glo, RLU); stimulus hTSLP QB11631” value in test [4] stood at 0.17 nM. Besides, the “IC50, inhibition of TSLP-induced proliferation of BaF3 cells expressing hTSLPR/hIL-7Rα (CellTiter-Glo, RLU); stimulus cyTSLP QB11632” value in [5] is 0.34 nM. Also, the “IC50, inhibition of TSLP-induced proliferation of BaF3 cells expressing hTSLPR/hIL-7Rα (CellTiter-Glo, RLU); stimulus cyTSLP QB11633” value in test [6] was 0.12 nM. In test [7], the “IC50, inhibition of TSLP-induced proliferation of BaF3 cells expressing hTSLPR/hIL-7Rα (CellTiter-Glo, RLU); stimulus native hTSLP from healthy donor 1” value stood at 12 pM. Besides, the “IC50, inhibition of TSLP-induced proliferation of BaF3 cells expressing hTSLPR/hIL-7Rα (CellTiter-Glo, RLU); stimulus native hTSLP from healthy donor 2” value in test [8] amounted to 12 pM. The Kd was determined as 0.154 nM in test [18]; 0.0595 nM in test [19]; 4 pM in [20]; 1.27 nM in [22]; 0.131 nM in [23]. Moreover, the koff was 0.000196 s⁻¹ in test [18]; 0.000192 s⁻¹ in test [19]; 0.000142 s⁻¹ in [20]; 0.000174 s⁻¹ in test [22]; 0.000132 s⁻¹ in test [23]. For the same molecule, the kon in test [18] was 1.27e+06 M⁻¹ s⁻¹; in test [19] it was 3.23e+06 M⁻¹ s⁻¹; in test [20], 3.56e+07 M⁻¹ s⁻¹; in test [22], 137000 M⁻¹ s⁻¹; in [23], 1.01e+06 M⁻¹ s⁻¹.
